From patent US7446182 (University of Texas, dated 2008)

Columns and labels:
[1] = target: T1, Bacillus anthracis protective antigen (PA), 83 kDa polypeptide (Bacillus anthracis, UniProt P13423 30-764); experiment: SPR
[2] = target: T1, Bacillus anthracis protective antigen …; experiment: SPR, PA immobilized on CM5 chip

T1 sequence (P13423 30-764 limits assumed): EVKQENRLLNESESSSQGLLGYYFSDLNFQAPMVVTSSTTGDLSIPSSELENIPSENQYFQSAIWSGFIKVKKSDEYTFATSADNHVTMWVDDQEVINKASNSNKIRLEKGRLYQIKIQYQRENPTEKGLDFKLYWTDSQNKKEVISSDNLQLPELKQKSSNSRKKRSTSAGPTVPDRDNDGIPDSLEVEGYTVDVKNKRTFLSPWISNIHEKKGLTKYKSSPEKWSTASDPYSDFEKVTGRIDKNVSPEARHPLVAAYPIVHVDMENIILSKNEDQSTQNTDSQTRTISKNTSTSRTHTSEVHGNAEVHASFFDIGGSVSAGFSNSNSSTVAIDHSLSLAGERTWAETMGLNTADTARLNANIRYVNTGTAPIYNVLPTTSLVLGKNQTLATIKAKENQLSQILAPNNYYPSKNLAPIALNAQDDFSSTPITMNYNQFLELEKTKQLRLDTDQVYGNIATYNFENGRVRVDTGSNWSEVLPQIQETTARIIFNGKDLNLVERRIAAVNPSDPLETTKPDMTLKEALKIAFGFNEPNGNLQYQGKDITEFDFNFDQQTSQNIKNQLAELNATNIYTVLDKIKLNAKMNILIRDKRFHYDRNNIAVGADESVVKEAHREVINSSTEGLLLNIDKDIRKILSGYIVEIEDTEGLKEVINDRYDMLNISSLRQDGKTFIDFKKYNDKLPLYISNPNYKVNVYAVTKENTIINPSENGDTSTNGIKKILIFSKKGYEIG

B1: 1H scFv (scFv)
scFv: DIQMTQTTSSLSASLGDRVTISCRASQDIRNYLNWYQQKPDGTVKLLIYYTSRLLPGVPSRFSGSGSGTDYSLTISNQEQEDIGTYFCQQGNTLPWTGFFFTKLEIRRGGGGSGGGGSGGGGSGGGGSEVQLQQSGPELVKPGASVKISCKIDSGYAFSSSWMNWVKQRFGQGLEWIGRIYPGDGDTNYNGKFKGKATLTADKSSSTAYMQLSSLTSVDSAVYFCARSGLLRYAMDYWGQGTSVTVSS
- Kd [1]: 0.25 nM
- fold lower equilibrium dissociation constant than 14B7 [1]: 48 fold
- Kd [2]: 0.24 nM
- koff [2]: 0.00017 s⁻¹
- kon [2]: 720000 M⁻¹ s⁻¹
